T1: Human CXCR2 (human, UniProt P25025 1-360)
T1 sequence: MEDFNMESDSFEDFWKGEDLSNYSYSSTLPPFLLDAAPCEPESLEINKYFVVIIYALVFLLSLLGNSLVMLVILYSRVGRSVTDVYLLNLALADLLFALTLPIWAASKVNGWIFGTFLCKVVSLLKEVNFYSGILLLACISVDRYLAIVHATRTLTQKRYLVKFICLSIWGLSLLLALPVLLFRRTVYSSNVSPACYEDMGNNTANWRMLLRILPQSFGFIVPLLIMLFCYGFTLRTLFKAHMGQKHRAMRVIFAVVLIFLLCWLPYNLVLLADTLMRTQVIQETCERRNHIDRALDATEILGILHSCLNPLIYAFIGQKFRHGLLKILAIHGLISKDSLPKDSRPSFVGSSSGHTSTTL

T2: Cynomolgus CXCR2 (cynomolgus, UniProt Q28519 3-353 (rhesus entry))
T2 chain: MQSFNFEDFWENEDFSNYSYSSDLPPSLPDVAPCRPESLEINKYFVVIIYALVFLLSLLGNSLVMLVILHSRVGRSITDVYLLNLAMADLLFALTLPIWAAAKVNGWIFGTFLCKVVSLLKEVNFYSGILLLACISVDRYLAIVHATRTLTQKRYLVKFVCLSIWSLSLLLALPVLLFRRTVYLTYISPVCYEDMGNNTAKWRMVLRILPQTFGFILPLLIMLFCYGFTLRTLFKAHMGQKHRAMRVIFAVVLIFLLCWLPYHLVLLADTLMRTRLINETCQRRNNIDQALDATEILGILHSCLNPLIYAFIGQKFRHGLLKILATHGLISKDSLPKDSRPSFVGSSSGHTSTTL

B1: CXCR20036 (other)
chain: EVQLVESGGGLVQAGGSLTLSCAVSGSTFRINTMGWYRRAPGKQRELVAARDRGGYINYVDSVKGRFTVSRDNAKPTMYLQMNSLKPEDTAVYYCHAGTQDRTGRNFDRWGQGTQVTVSSGGGGSGGGGSGGGGSGGGGSGGGGSGGGGSGGGGSEVQLVESGGGLVQAGGSLRLSCAASGRTFSDYAMGWFRQAPGKEREFVAAITWNGGRVFYTASVKGRFTISRDNAKNTMYLQMNSLKPEDTAVYYCAADKDRRTDYLGHPVAYWGQGTQVTVSS
notes: Biparatopic: two VHH joined by a GlySer linker; also called 54B12-35GS-163D2; 54B12-163D2; not shown: C-terminal c-myc tag and His6 tag coded by pAX100
B2: CXCR20016 (other)
chain: EVQLVESGGGLVQPGGSVRLSCVASGIIFRLSALGWTRQGPGKAREWVAGINSDGTTNYADPVKGRFTISRDNAKNTIYLHMDMLKPEDTAVYYCASGKYRGQGTQVTVSSGGGGSGGGGSGGGGSGGGGSGGGGSGGGGSGGGGSEVQLVESGGELVQPGGSLRLSCAASGSILTINAMGWYRQAPGKQRELVVRRTRGGSTTYQDSVKGRFTISADIAKKTMYLQMNSLKPEDTAVYYCMLDDRGGVYWGQGTQVTVSS
notes: Two different VHH joined by a GlySer linker; also called 137B7-35GS-2B2; not shown: C-terminal c-myc tag and His6 tag coded by pAX100
B3: CXCR20027 (bispecific antibody)
chain: EVQLVESGGGLVQPGGSLRLSCVASGRIFSSNAMGWFRQAPGKEREFVAAITWRSGGSAYYADSAKGRFTISRDNAKNTVYLQMNSLKPEDTAVYYCAAGGSSWLSFPPDYWGQGTQVTVSSGGGGSGGGGSGGGGSGGGGSGGGGSGGGGSGGGGSEVQLVESGGGLVQAGGSLRLSCAASGRTFSDYAMGWFRQAPGKEREFVAAITWNGGRVFYTASVKGRFTISRDNAKNTMYLQMNSLKPEDTAVYYCAADKDRRTDYLGHPVAYWGQGTQVTVSS
notes: Two different VHH joined by a GlySer linker; also called 163E3-35GS-163D2; not shown: C-terminal c-myc tag and His6 tag coded by pAX100
B4: CXCR20013 (bispecific antibody)
chain: EVQLVESGGELVQPGGSLRLSCAASGSILTINAMGWYRQAPGKQRELVVRRTRGGSTTYQDSVKGRFTISADIAKKTMYLQMNSLKPEDTAVYYCMLDDRGGVYWGQGTQVTVSSGGGGSGGGGSGGGGSGGGGSGGGGSGGGGSGGGGSEVQLVESGGGLVQPGGSLRLSCVASGSIVRINTMGWYRQTPGKQRELVADITSGGNINYIDAVKGRFTISRDNTKNTVYLQMNSLKPEDTAVYYCNAEIVVLVGVWTQRARTGNYWGQGTQVTVSS
notes: Biparatopic: two VHH joined by a GlySer linker; also called 2B2-35GS-97A9; not shown: C-terminal c-myc tag and His6 tag coded by pAX100
B5: CXCR20015 (other)
chain: EVQLVESGGELVQPGGSLRLSCAASGSILTINAMGWYRQAPGKQRELVVRRTRGGSTTYQDSVKGRFTISADIAKKTMYLQMNSLKPEDTAVYYCMLDDRGGVYWGQGTQVTVSSGGGGSGGGGSGGGGSGGGGSGGGGSGGGGSGGGGSEVQLVESGGGLVQPGGSVRLSCVASGIIFRLSALGWTRQGPGKAREWVAGINSDGTTNYADPVKGRFTISRDNAKNTIYLHMDMLKPEDTAVYYCASGKYRGQGTQVTVSS
notes: Two different VHH joined by a GlySer linker; also called 2B2-35GS-137B7; not shown: C-terminal c-myc tag and His6 tag coded by pAX100
B6: CXCR20029 (other)
chain: EVQLVESGGGLVQPGGSLRLSCVASGRIFSSNAMGWFRQAPGKEREFVAAITWRSGGSAYYADSAKGRFTISRDNAKNTVYLQMNSLKPEDTAVYYCAAGGSSWLSFPPDYWGQGTQVTVSSGGGGSGGGGSGGGGSGGGGSGGGGSGGGGSGGGGSEVQLVESGGGLVQAGGSLTLSCAVSGSTFRINTMGWYRRAPGKQRELVAARDRGGYINYVDSVKGRFTVSRDNAKPTMYLQMNSLKPEDTAVYYCHAGTQDRTGRNFDRWGQGTQVTVSS
notes: Biparatopic: two VHH joined by a GlySer linker; also called 163E3-35GS-54B12; not shown: C-terminal c-myc tag and His6 tag coded by pAX100
B7: CXCR20011 (VHH)
chain: EVQLVESGGGLVQPGGSLRLSCVASGSIVRINTMGWYRQTPGKQRELVADITSGGNINYIDAVKGRFTISRDNTKNTVYLQMNSLKPEDTAVYYCNAEIVVLVGVWTQRARTGNYWGQGTQVTVSSGGGGSGGGGSGGGGSGGGGSGGGGSGGGGSGGGGSEVQLVESGGGLVQPGGSLRLSCVASGSIVRINTMGWYRQTPGKQRELVADITSGGNINYIDAVKGRFTISRDNTKNTVYLQMNSLKPEDTAVYYCNAEIVVLVGVWTQRARTGNYWGQGTQVTVSS
notes: Bivalent: two VHH joined by a GlySer linker; also called 97A9-35GS-97A9; not shown: C-terminal c-myc tag and His6 tag coded by pAX100
B8: CXCR20018 (other)
chain: EVQLVESGGGLVQPGGSVRLSCVASGIIFRLSALGWTRQGPGKAREWVAGINSDGTTNYADPVKGRFTISRDNAKNTIYLHMDMLKPEDTAVYYCASGKYRGQGTQVTVSSGGGGSGGGGSGGGGSGGGGSGGGGSGGGGSGGGGSEVQLVESGGGLVQPGGSLRLSCVASGSIVRINTMGWYRQTPGKQRELVADITSGGNINYIDAVKGRFTISRDNTKNTVYLQMNSLKPEDTAVYYCNAEIVVLVGVWTQRARTGNYWGQGTQVTVSS
notes: Two different VHH joined by a GlySer linker; also called 137B7-35GS-97A9; not shown: C-terminal c-myc tag and His6 tag coded by pAX100
B9: CXCR20019 (VHH)
chain: EVQLVESGGELVQPGGSLRLSCAASGSILTINAMGWYRQAPGKQRELVVRRTRGGSTTYQDSVKGRFTISADIAKKTMYLQMNSLKPEDTAVYYCMLDDRGGVYWGQGTQVTVSSGGGGSGGGSEVQLVESGGELVQPGGSLRLSCAASGSILTINAMGWYRQAPGKQRELVVRRTRGGSTTYQDSVKGRFTISADIAKKTMYLQMNSLKPEDTAVYYCMLDDRGGVYWGQGTQVTVSS
notes: Bivalent: two VHH joined by a 9GS linker; also called 2B2-9GS-2B2; not shown: C-terminal c-myc tag and His6 tag coded by pAX100
B10: CXCR20012 (other)
chain: EVQLVESGGGLVQPGGSVRLSCVASGIIFRLSALGWTRQGPGKAREWVAGINSDGTTNYADPVKGRFTISRDNAKNTIYLHMDMLKPEDTAVYYCASGKYRGQGTQVTVSSGGGGSGGGGSGGGGSGGGGSGGGGSGGGGSGGGGSEVQLVESGGGLVQPGGSVRLSCVASGIIFRLSALGWTRQGPGKAREWVAGINSDGTTNYADPVKGRFTISRDNAKNTIYLHMDMLKPEDTAVYYCASGKYRGQGTQVTVSS
notes: Bivalent: two VHH joined by a GlySer linker; also called 137B7-35GS-137B7; not shown: C-terminal c-myc tag and His6 tag coded by pAX100

target: T1, Human CXCR2; assay: cell-based or functional assay

Row | FLIPR % inhibition of max | FLIPR IC50 (GRO-α induced calcium release) | Binder
1 | 100% | 7.86 nM | B1
2 | 100% | 2.36 nM | B2
3 | 100% | 17.8 nM | B3
4 | 100% | 2.93 nM | B4
5 | 100% | 2.78 nM | B5
6 | 100% | 17.1 nM | B6
7 | 100% | 137 nM | B7

Target: T2, Cynomolgus CXCR2
Assay: cell-based or functional assay

Row | FLIPR % inhibition of max | FLIPR IC50 (GRO-α induced calcium release) | Binder
8 | 100% | 4.27 nM | B1
9 | 100% | 1100 nM | B2
10 | 100% | 12.7 nM | B3
11 | 100% | 29.2 nM | B4
12 | 100% | 2870 nM | B5
13 | 100% | 10.1 nM | B6

target: T1, Human CXCR2; assay: FACS competition vs 3 nM FMAT-Blue Gro-α
Protocol: (§1) Multivalent anti-CXCR2Nanobodies were titrated against 3 nM FMAT-Blue-labeled Gro-α in the FACS ligand competition assay on human and cynomolgus CXCR2 (Table 14). On human CXCR2, blocking potencies range between double digit nM and sub-nM whereas on cynomolgus CXCR2, they range between single and double digit nM.

Row | % inhibition of max | IC50 | Binder
14 | 98% | 0.7 nM | B1
15 | 100% | 0.8 nM | B2
16 | 98% | 1.9 nM | B8
17 | 100% | 4.9 nM | B3
18 | 90% | 0.9 nM | B4
19 | 99% | 0.7 nM | B5
20 | 50.6% | 0.044 nM | B9
21 | 99.1% | 0.606 nM | B10
22 | 98.5% | 1.13 nM | B6
23 | 99% | 35.2 nM | B7

Target: T2, Cynomolgus CXCR2
Assay: FACS competition vs 3 nM FMAT-Blue Gro-α
Protocol: as §1

Row | % inhibition of max | IC50 | Binder
24 | 98% | 2.27 nM | B1
25 | 88% | 5.7 nM | B2
26 | 47% | 50.8 nM | B8
27 | 97% | 6.42 nM | B3
28 | 98.5% | 4.2 nM | B4
29 | 81.5% | 99 nM | B5
30 | 81% | 1.8 nM | B9
31 | 98.5% | 2.09 nM | B6
32 | 60% | 97.4 nM | B7

From US20130330346A1 (Novartis, published 2013)
